This is an account of results in PMC4923861.

Test [1] concerns the target CKK domain of mouse CAMSAP3/Marshalin-Ld (CKK1 or CKK2, not told for this experiment) (UniProt Q80VC9). Kind of test: GST pull-down. The conditions noted are these: n = 4; parent: est. 1.0; read off a plot.
The target in test [2] is CKK1, CKK domain construct of mouse CAMSAP3/Marshalin-Ld (residues 1020–1253) (mouse).
The target of test [3] is CAMSAP3/Marshalin-Ld, V5-His tagged (mouse) (UniProt Q80VC9).

As for “GST-CDH23-C_1–67 (first 67 residues of mouse CDH23-C; CKK binding motif, CBM) R55H”, the response (relative intensity) in test [1] was 0.65.

For the substance “GST-tagged CDH23-C1 (mouse cadherin 23, C isoform, subtype 1) (natural protein)”, in test [2], the percent of OK cells with CKK1-induced MT bundles, CKK1 (V5-His) co-expressed with CDH23-C1-GFP, 44 to 68 hours after transfection (19.9% with GFP) was determined as 5.5%. In addition, the decrease of the percent of OK cells with type III (long strings) CAMSAP3/Marshalin-Ld pattern on co-expression of CDH23-C1-GFP, against GFP (54.1% type III), 24 hours after co-transfection in test [3] turned out to be 21.3%.

Regarding “GST-tagged CDH23-C2 (mouse cadherin 23, C isoform, subtype 2) (natural protein)”, the decrease of the percent of OK cells with type III (long strings) CAMSAP3/Marshalin-Ld pattern on co-expression of CDH23-C2-GFP, against GFP (54.1% type III), 24 hours after co-transfection in test [3] was determined as 20%.
